The target in one assay is 2F8-HG-Y275A (human). In words: non-covalent nano-ESI MS, 0.01-10 µM, self-association.
The target in assay [1] is 2F8-HG (human). In words: non-covalent nano-ESI MS, monomer/dimer equilibrium (CH3-CH3 dimerisation of half-molecules).
Assay [2] deals with 2F8-HG (human). Nature of the assay: non-covalent nano-ESI MS, 1 µM, self-association.
The target in a further assay is 2F8-HG-L236V (human). Nature of the assay: non-covalent nano-ESI MS, 0.01-10 µM, self-association.
The next assay has as its target 2F8-HG-F405A (human). The assay is described as above.

In turn, 2F8-HG-Y275A (antibody) yielded a percent monomeric at low concentrations in the assay with 2F8-HG-Y275A (human) of 100%.

One may read the Kd as a measure of binding affinity in units of concentration. Take 2F8-HG (antibody): the Kd with 2F8-HG (human) [1] was determined as 50 nM. For the same molecule, the percentage molecules present as monomers with 2F8-HG (human) [2] was 15%.

For 2F8-HG-L236V (antibody), the percent monomeric at low concentrations in the assay with 2F8-HG-L236V (human) amounted to 100%.

B1: 2F8-HG-F405A (antibody, part only; not given: 2F8 VH and light chain, part only)
heavy, part: ASTKGPSVFPLAPCSRSTSESTAALGCLVKDYFPEPVTVSWNSGALTSGVHTFPAVLQSSGLYSLSSVVTVPSSSLGTKTYTCNVDHKPSNTKVDKRVAPEFLGGPSVFLFPPKPKDTLMISRTPEVTCVVVDVSQEDPEVQFNWYVDGVEVHNAKTKPREEQFNSTYRVVSVLTVLHQDWLNGKEYKCKVSNKGLPSSIEKTISKAKGQPREPQVYTLPPSQEEMTKNQVSLTCLVKGFYPSDIAVEWESNGQPENNYKTTPPVLDSDGSFALYSRLTVDKSRWQEGNVFSCSVMHEALHNHYTQKSLSLSLGK
In turn, B1 gave a percent monomeric at low concentrations in the assay with 2F8-HG-F405A (human) of 100%.

The values above are taken from patent publication US20150376282A1.
